Source: PMC3597819 (The Journal of Biological Chemistry, 2013)

Molecular target: the molecule itself
Assay: crystal structure

B1: KLHL11 BTB-BACK domains (residues 67-340) (domain or fragment, human, UniProt Q9NVR0 67-340, looked up)
chain: EAEDFECSSHCSELSWRQNEQRRQGLFCDITLCFGGAGGREFRAHRSVLAAATEYFTPLLSGQFSESRSGRVEMRKWSSEPGPEPDTVEAVIEYMYTGRIRVSTGSVHEVLELADRFLLIRLKEFCGEFLKKKLHLSNCVAIHSLAHMYTLSQLALKAADMIRRNFHKVIQDEEFYTLPFHLIRDWLSDLEITVDSEEVLFETVLKWVQRNAEERERYFEELFKLLRLSQMKPTYLTRHVKPERLVANNEVCVKLVADAVERHALRAENIQSGT
  stoichiometry N: 2
